± gives the half width of the 95% confidence interval.
Experiments:
[1] = folding stability dG unfold from trypsin proteolysis; higher = more stable
Procedure, shortened: (§1)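 Designed mini-proteins with no cysteine and under 80 residues were kept only if AlphaFold2 dimer inter-PAE was above 15. In a PA-tagged cDNA display construct, they were digested with trypsin and chymotrypsin and then sequenced. K50 was inferred by Bayesian fitting of counts, and unfolding free energy was derived per protease or combined against a sequence-predicted unfolded-state K50 and a shared folded-state K50.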

[2] = folding stability dG unfold from chymotrypsin proteolysis; higher = more stable
Procedure, shortened: as §1

[3] = folding stability dG unfold (combined trypsin and chymotrypsin); higher = more stable
Procedure, shortened: as §1

Sequence | folding stability dG unfold [1] [kcal/mol] | folding stability dG unfold [2] [kcal/mol] | folding stability dG unfold [3] [kcal/mol]
SAGGELKLLFNFPSKEEAEEFAEALKKAYPNFEVEVEYDPETGLFYLTLKPKEIPPLSPEELEKLLESAGGS [r16_674_TrMRF] | 2.96 ± 0.085 | 4.87 ± 0.056 | 4.7 ± 0.071
SAGGELVLLIRVTPERIEIRLLPKEALEGLELEAPPGERLLLVELEPPPPEEEEREERRREEREELEESAGG [r13_74_TrROS_Hall] | 1.34 ± 0.13 | 1.4 ± 0.23 | 1.32 ± 0.41
SAGGEMVTIRVRAPDPEKLIEALREEFPEGLTIRPFPRPTPDGYEVLIVVPAERPEELLEAVERAIGSAGGS [r16_43_TrMRF] | 2.01 ± 0.075 | 2.17 ± 0.022 | 2.13 ± 0.068
SAGGEPMKIRIEIYRMKRKKDPKDGKEKWDMRPVPEYEIPFPPGETLLDILDKLPLPPGYMIKRISIESAGG [r13_716_TrROS] | 2.28 ± 0.097 | 2.07 ± 0.12 | 2.13 ± 0.32
SAGGEPPPVRVSFSVEEVTVGAGPVFVRRVVTYDPAEGRVSEFVEVFERGRGGLLGRSSRTVPAEELASAGG [r13_772_TrMRF] | 4.08 ± 0.15 | 4.7 ± 0.13 | 4.44 ± 0.16
SAGGEPVKFIPPGWKITLTTPDGRPLTFTLPANATPEDFKSLELPGDHELEFVEFLPDGTILVRSPKSAGGS [r16_103_TrMRF] | 0.948 ± 0.088 | 1.2 ± 0.18 | 1.12 ± 0.11
SAGGERLTLEELEELLKNLPPGVEEVTITLKLEVEVRTEVRLNEDGSLETRTETRVTTELTLTLPKESAGGS [r16_708_TrROS_Hall] | 2.5 ± 0.34 | 4.01 ± 0.4 | 3.46 ± 0.25
SAGGETKTLTIKFYDPKTGKLVAEVTITYTPEKVTVTIRFADGTTETVEMTAEELLAKLPPGAVIVPSAGGS [r16_543_TrROS_Hall] | 3.79 ± 0.11 | 4.46 ± 0.22 | 4.31 ± 0.16
SAGGETLTVTVLIKNKDEKNKYYKVEVKVTVEKNENGEKTLTIEMKITDKNGNKKTIKVNLKDIKIIDSAGG [r13_787_TrROS_Hall] | 2.52 ± 0.26 | 4.33 ± 0.24 | 3.69 ± 0.32
SAGGETRTFMFPFKPGMPLEEIIEELIDVLQKKGKDYPIEFKPIEPDPNGYMLFMATVTNNKITIFWSAGGS [r8_7_TrROS] | 2.22 ± 0.05 | 3.03 ± 0.083 | 2.83 ± 0.17
SAGGETVTLTLKVETLEELEALAKKLAEETGEEVTIEVIGPDGKKYTFKTPEELKNIPGATVKITIKKSAGG [r13_620_TrROS_Hall] | 2.19 ± 0.13 | 2.96 ± 0.041 | 2.87 ± 0.15
SAGGEVELKIKIEIRVELNEDGELKVEIKIEIELRPKPEPELTEEERLAEELRKKYPGLSKEELEALLSAGG [r13_136_TrROS_Hall] | 2.87 ± 0.32 | 1.63 ± 0.13 | 2.32 ± 0.27
SAGGEVKPGDKVKVRLRLRVRLEDGEEVEVELEFVEVEVVPLSEEEKEKLEELKKKKPEVDPKNKELLSAGG [r13_330_TrROS_Hall] | 1.61 ± 0.13 | 2.24 ± 0.11 | 1.81 ± 0.3
SAGGEVKVVKAEVTTLPDGRKLVRLLLEVGGKFYPVLIDVHPDGVRITFPDGKTATIKLEDLKNLTWSAGGS [r16_593_TrMRF] | 2.64 ± 0.094 | 1.73 ± 0.14 | 2.15 ± 0.12
SAGGEVLIDTGPSPEEALYRAYEKGGEVPVIVLEPGSRVLHIFNVRFNPIPKKVEILDEYEIPILPELSAGG [r13_309_TrMRF] | 1.18 ± 0.025 | 1.46 ± 0.087 | 1.38 ± 0.11
SAGGFEFEFTNPDGKKIKVEIERHPEEGYIMLKIQYGGKPVETFPPGDEFEIPPDGIDAVIMFRLPPESAGG [r13_958_TrROS] | 2.88 ± 0.15 | 3.22 ± 0.12 | 2.91 ± 0.22
SAGGFKEIKKKLGVKKEDKVILDLEVNFGKKPKFFKVEFEVDKLEEIVKELGIPKENLKIVKAVVIKESAGG [r13_681_TrMRF] | -0.523 ± 0.31 | 1.16 ± 0.082 | 0.706 ± 0.13
SAGGFLEAIKNGKPVIFHVLVKHPGSGEVEEYPILVHPDKPIDLEKLIKELFPEDFEAEIFVSDFGFSAGGS [r8_127_TrMRF] | 1.3 ± 0.13 | 2.11 ± 0.058 | 1.89 ± 0.089
